Laboratory results: US9757451B2, “Use of RANK/RANKL antagonists for treating muscular dystrophy” (UNIVERSITÉ LAVAL, priority 2011, dated 2017)
Entries after “also recorded” stand apart in the source; their conditions may differ.

Key:
[1] = cited from earlier work
C2C12 myotubes [2] = assay: Dexamethasone-induced myotube atrophy (myotube diameter) in vitro; assay type: cell-based, mouse
Description: FIG. 9. […] Myotubes were incubated with DEX (1,000 nM) and/or OPG at 10 ng/mL or 100 ng/mL. OPG used and tested in vivo and in vitro was bought from R&D systems (Catalog number:459-MO).
To further investigate how RANK/RANKL influences muscle function, the present inventor(s) have assessed the effect of DEX on C2C12 myoblasts grown in DMEM containing 10% FBS and 1% antibiotic-antimycotic in 96-well plates at a density of 3,000 myoblasts/well. The present inventor(s) used this mouse myoblast cell line because the present inventor(s) are very familiar with it and because it easily differentiates into myotubes and responds to RANKL stimulation. Confluent myoblasts on coverslips (approximately 300,000/well) were incubated in DMEM containing 2% horse serum for five days to allow them to differentiate into myotubes. The myotubes were then exposed to […]. This concentration was sufficient to induce a 15-20% decrease in myotube diameter relative to control myotubes after 48 h. Myotubes in other wells were treated or not with 1 mM DEX combined with 100 ng/ml of OPG. In the experiment proposed herein, myotube atrophy were determined by measuring the diameters of the myotubes at 100× magnification using a light microscope (Nikon). Three different sites in each well were blindly identified and observed throughout the experiment. The average were considered as a single value. Myotube diameters were quantified using the ImageJ digital imaging system (NIH). The diameters of 150 to 200 myotubes per well were measured after 24 and 48 h. Measurements were performed in triplicate for all the experimental conditions to enable statistical comparisons between groups.

mdx mice = assay: Contractile and physical properties of SOL and EDL muscles of mdx mice injected with OPG; assay type: in vivo; details: for half relaxation time (½ RT) / maximal absolute force (Po) / maximal twitch tension (Pt) / time to peak tension (TPT) / Muscle weight: mdx, mean +/- sem
Excerpt: (§1) Muscle contractility measurements were used to test the involvement of the RANK/RANKL pathway in muscle dysfunction. In vitro measurements of muscle contractility are the gold standard for assessing muscle function and were be performed as described previously^68,69. […] Twitch and tetanic contractions were elicited, and the following measurements recorded: maximum twitch tension (Pt), time to peak tension (TPT), one-half relaxation time (RT 1/2), and maximum tetanic tension (Po). To assess muscle fatigue, EDL and SOL muscles from RANK^fl/fl and RANK^del/fl mice were stimulated at 1 train/s at 50 Hz, and the time to the loss of 30% of their initial force recorded. […] Consistent with this observation that RANK^del/fl mice expressed a faster muscle phenotype than wild type, SOL and EDL muscles from these mice were less resistant to a fatigue protocol (FIGS. 5,6). The muscles were weighed without their tendons to quantify muscle mass and to allow the calculation of the maximum specific Po (N/cm^2).
Male mdx mice (C57BL/10ScSnJ) were purchased from Jackson Laboratories. Mdx mice were then injected i.p. with OPG (0.3 mg/kg/day) for 10 days during the 3rd and 4th week of life. Body weight were measured every 2 days and drug volume were adjusted accordingly. This concentration of OPG is selected because it is known to inhibit RANKL and bone resorption.
(§2) SOL and EDL muscles from male wild type and mdx mice were dissected and contractile properties analyzed at 4 weeks of age.

C57BL/10J mice = assay: Contractile and physical properties of SOL and EDL muscles of C57BL/10J control mice injected with OPG; assay type: in vivo; details: OPG 0.3 mg/kg/day i.p. 10 days, mean +/- sem
Excerpt: as §1, §2

C2C12 myotubes [3] = assay: Ca2+ concentration in myotubes measured with fluo-4; assay type: cell-based, mouse; details: RANKL 100 ng/ml, 10 min; myotubes 5 days in differentiation medium
Description: FIG. 17: RANK/RANKL interaction influences Ca^2+ homeostasis and activates different cell signaling pathways. […] Data are presented as mean+/−sem.
C2C12 myotubes fully differentiated were incubated with fluo-4 to measure Ca^2+ concentration. C2C12 Myotubes were then exposed to RANKL (100 ng/ml) for 10 min. […] (FIG. 17A). Serca activity in sham and denervated RANK^del/fl compared to sham and denervated RANK^fl/fl EDL muscles were then measured by spectrofluorimetric analysis. SERCA activity increased by more than 2-fold in EDL muscles from sham and denervated RANK^del/fl mice (FIG. 17B). […] Graph representing the difference in the expression of SERCA isoforms for each fiber type for SOL and EDL muscles compared to sham RANK^fl/fl mice. (FIG. 17E). […] Data are presented as mean+/−sem.

[4] = EDL muscle ex vivo, OPG 0.3 mg/kg/day i.p. 10 days
[5] = SOL muscle ex vivo, OPG 0.3 mg/kg/day i.p. 10 days

Denosumab: full human antibody that shares the pharmalogical attributes of OPG; RANKL antagonist
half-life relative to OPG [1]: significant longer half-life

C[C@@H]1C[C@H]2[C@@H]3CCC4=CC(=O)C=C[C@]4(C)[C@@]3(F)[C@@H](O)C[C@]2(C)[C@@]1(O)C(=O)CO [DEX, dexamethasone, reference compound]
decrease in myotube diameter relative to control myotubes (C2C12 myotubes [2]; 1 mM DEX, after 48 h): 15-20%

B1: OPG: Osteoprotegerin, binds RANKL and inhibits the RANK/RANKL interaction; bought from R&D systems (Catalog number:459-MO) (protein, UniProt O08712 22-401, looked up)
Tumor necrosis factor …: ETLPPKYLHYDPETGHQLLCDKCAPGTYLKQHCTVRRKTLCVPCPDHSYTDSWHTSDECVYCSPVCKELQSVKQECNRTHNRVCECEEGRYLEIEFCLKHRSCPPGSGVVQAGTPERNTVCKKCPDGFFSGETSSKAPCIKHTNCSTFGLLLIQKGNATHDNVCSGNREATQKCGIDVTLCEEAFFRFAVPTKIIPNWLSVLVDSLPGTKVNAESVERIKRRHSSQEQTFQLLKLWKHQNRDQEMVKKIIQDIDLCESSVQRHLGHSNLTTEQLLALMESLPGKKISPEEIERTRKTCKSSEQLLKLLSLWRIKNGDQDTLKGLMYALKHLKTSHFPKTVTHSLRKTMRFLHSFTMYRLYQKLFLEMIGNQVQSVKISCL
effect on DEX-induced atrophic and phenotype change process in myotubes (C2C12 myotubes [2]; 1 mM DEX, >100 ng/ml of OPG, preliminary results): reversed the atrophic and phenotype change process | effect on DEX-induced myotube atrophy (C2C12 myotubes [2]; DEX 1,000 nM, OPG 100 ng/ml, 24 and 48 h (FIG. 9)): protects against DEX-induced myotube atrophy; also recorded: totally reversed the atrophic process; also recorded: prevents myotube atrophy | half relaxation time (½ RT) (mdx mice; [4]): 20.67 ± 2.18 ms | maximal absolute force (Po) (mdx mice; [4]): 10.3 ± 1.3 g | maximal twitch tension (Pt) (mdx mice; [4]): 2.01 ± 0.2 g | time to peak tension (TPT) (mdx mice; [4]): 29.75 ± 7.47 ms | Muscle weight (mdx mice; EDL muscle, OPG 0.3 mg/kg/day i.p. 10 days): 4.96 ± 0.93 mg | half relaxation time (½ RT) (mdx mice; [5]): 38 ± 3.3 ms | maximal absolute force (Po) (mdx mice; [5]): 8.02 ± 2.99 g | maximal twitch tension (Pt) (mdx mice; [5]): 1.2 ± 0.18 g | time to peak tension (TPT) (mdx mice; [5]): 35.2 ± 2.43 ms | Muscle weight (mdx mice; SOL muscle, OPG 0.3 mg/kg/day i.p. 10 days): 4.90 ± 0.72 mg | increase of maximum force production (maximum specific tetanic force) of EDL muscles (mdx mice; male mdx mice, OPG 0.3 mg/kg daily 10 days from day 18 after birth, vs PBS): more than 200% | specific muscle force of EDL muscles (mdx mice; young mdx mice (28 days), OPG 0.3 mg/kg/day i.p. 10 days, compared to PBS): Specific muscle force preservation is also observed | half relaxation time (½ RT) (C57BL/10J mice; EDL muscle ex vivo): 20.3 ± 2.4 ms | maximal absolute force (Po) (C57BL/10J mice; EDL muscle ex vivo): 14.53 ± 3.44 g | maximal twitch tension (Pt) (C57BL/10J mice; EDL muscle ex vivo): 2.52 ± 0.26 g | time to peak tension (TPT) (C57BL/10J mice; EDL muscle ex vivo): 25.8 ± 2.6 ms | Muscle weight (C57BL/10J mice; EDL muscle): 4.18 ± 0.25 mg | half relaxation time (½ RT) (C57BL/10J mice; SOL muscle ex vivo): 46.8 ± 5.7 ms | maximal absolute force (Po) (C57BL/10J mice; SOL muscle ex vivo): 10.79 ± 0.27 g | maximal twitch tension (Pt) (C57BL/10J mice; SOL muscle ex vivo): 1.8 ± 0.06 g | time to peak tension (TPT) (C57BL/10J mice; SOL muscle ex vivo): 50.75 ± 3.83 ms | Muscle weight (C57BL/10J mice; SOL muscle): 3.73 ± 0.20 mg

B2: RANKL: receptor-activator of nuclear factor κβ ligand, added at 100 ng/ml to C2C12 myotubes (protein, UniProt O35235 139-316, looked up)
Tumor necrosis factor ligand …: FSGAPAMMEGSWLDVAQRGKPEAQPFAHLTINAASIPSGSHKVTLSSWYHDRGWAKISNMTLSNGKLRVNQDGFYYLYANICFRHHETSGSVPTDYLQLMVYVVKTSIKIPSSHNLMKGGSTKNWSGNSEFHFYSINVGGFFKLRAGEEISIQVSNPSLLDPDQDATYFGAFKVQDID
effect on DEX-induced myotube atrophy (C2C12 myotubes [2]; RANKL with DEX): exacerbates | cytosolic Ca2+ (mean fluorescence intensity of fluo-4) (C2C12 myotubes [3]): increased the release of cytosolic Ca^2+; also recorded: increased mean fluorescence intensity of fluo-4
